Results reported in publication PMC2964344.

Settings: methylation at K27

histone H3: ATXR6 Y243N (SET-domain catalytic mutant) expressed in atxr5 atxr6
other: changes
